Experimental data: patent publication US20150197542A1 (SAMSUNG ELECTRONICS, published 2015)

Target: T1, human c-Met/Fc fusion protein (R&D Systems) (human, UniProt P08581 25-932)
T1 construct: Bought reagent; also called human c-Met/Fc protein; not shown: Fc part of the bought fusion
Assay: ELISA, human c-Met/Fc fusion protein coated at 2 µg/mL, hybridoma culture, anti-mouse IgG-HRP
Method: Human c-Met/Fc fusion protein was seeded in an amount of 50 μL (2 μg/mL)/well to microtiter plates and allowed to adhere to the surface of each well. The antibody that remained unbound was removed by washing.
The hybridoma cell culture obtained in Reference Example 1.1.2 was added in an amount of 50 μL to each well of the plates and incubated for 1 hour. The cells remaining unreacted were washed out with a sufficient amount of Tris-buffered saline and Tween 20 (TBST). Goat anti-mouse IgG-horseradish peroxidase (HRP) was added to the plates and incubated for 1 hour at room temperature. The plates were washed with a sufficient amount of TBST, followed by reacting the peroxidase with a substrate (OPD). Absorbance at 450 nm was measured on an ELISA reader.

T1 sequence (P08581 25-932 limits assumed): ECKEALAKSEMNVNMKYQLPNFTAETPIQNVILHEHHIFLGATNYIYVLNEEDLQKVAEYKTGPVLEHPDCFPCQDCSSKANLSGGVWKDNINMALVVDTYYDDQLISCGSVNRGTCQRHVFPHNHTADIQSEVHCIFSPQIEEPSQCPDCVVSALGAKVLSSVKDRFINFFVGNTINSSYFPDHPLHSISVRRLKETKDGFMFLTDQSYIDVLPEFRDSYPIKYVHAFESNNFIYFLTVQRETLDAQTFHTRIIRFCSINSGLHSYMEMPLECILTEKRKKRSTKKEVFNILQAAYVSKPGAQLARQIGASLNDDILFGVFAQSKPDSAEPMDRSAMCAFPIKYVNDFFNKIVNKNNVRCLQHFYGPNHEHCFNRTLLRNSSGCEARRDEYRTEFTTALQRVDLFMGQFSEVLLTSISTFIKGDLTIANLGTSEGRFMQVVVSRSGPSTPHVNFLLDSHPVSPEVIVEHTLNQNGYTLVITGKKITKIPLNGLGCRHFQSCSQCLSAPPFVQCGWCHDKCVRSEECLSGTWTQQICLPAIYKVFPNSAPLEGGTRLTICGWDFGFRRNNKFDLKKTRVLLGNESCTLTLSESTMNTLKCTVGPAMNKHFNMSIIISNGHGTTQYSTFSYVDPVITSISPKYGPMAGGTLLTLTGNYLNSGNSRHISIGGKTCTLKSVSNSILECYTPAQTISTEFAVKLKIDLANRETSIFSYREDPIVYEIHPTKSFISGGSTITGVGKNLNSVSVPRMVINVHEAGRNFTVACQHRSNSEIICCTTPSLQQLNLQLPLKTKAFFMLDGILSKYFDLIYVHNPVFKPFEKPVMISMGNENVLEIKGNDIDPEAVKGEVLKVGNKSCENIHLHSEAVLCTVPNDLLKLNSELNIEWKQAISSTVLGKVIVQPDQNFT

- binding result: binds
B1: AbF46, mouse monoclonal antibody to c-Met (hybridoma KCLRF-BP-00220) (antibody, V domains shown)
VH: EVKLVESGGGLVQPGGSLRLSCATSGFTFTDYYMSWVRQPPGKALEWLGFIRNKANGYTTEYSASVKGRFTISRDNSQSILYLQMDTLRAEDSATYYCARDNWFAYWGQGTLVTVSA
VL: DILMTQSPSSLTVSAGEKVTMSCKSSQSLLASGNQNNYLAWHQQKPGRSPKMLIIWASTRVSGVPDRFIGSGSGTDFTLTINSVQAEDLAVYYCQQSYSAPLTFGAGTKLELK
notes: Tested as hybridoma culture supernatant in the screening ELISA; also called mouse antibody AbF46
